Laboratory results from patent US20030096306A1.

Biological target: GCN4 leucine zipper (aa 245-285) fused C-terminal to LexA (yeast)
Test: cell-based or functional assay

“Gal4 AD-anti-GCN4 (H-R66K) scFv (from UniProt P04386 768-881)” was tested, and the growth on -Trp/-Leu/-His plates with 3-AT (HIS3 reporter, two hybrid) was 20 mM 3-AT.
